Measured values: PMC3897551

Biological target: tubulin dimers
Experiment: MST

Chain of tubulin dimers (P68363 whole entry, chain 1 of 2): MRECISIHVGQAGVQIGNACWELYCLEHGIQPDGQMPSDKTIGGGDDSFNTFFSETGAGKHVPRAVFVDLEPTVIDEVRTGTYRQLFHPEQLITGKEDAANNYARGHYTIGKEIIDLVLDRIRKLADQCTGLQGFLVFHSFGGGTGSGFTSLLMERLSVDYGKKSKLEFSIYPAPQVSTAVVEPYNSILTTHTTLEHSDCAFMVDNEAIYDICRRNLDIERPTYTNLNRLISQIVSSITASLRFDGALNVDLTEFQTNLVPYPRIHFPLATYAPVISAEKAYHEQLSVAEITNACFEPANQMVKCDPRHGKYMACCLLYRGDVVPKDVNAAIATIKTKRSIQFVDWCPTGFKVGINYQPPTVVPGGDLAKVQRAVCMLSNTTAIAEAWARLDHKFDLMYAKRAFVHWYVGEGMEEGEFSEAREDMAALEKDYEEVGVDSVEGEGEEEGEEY
Chain of tubulin dimers (A8K068 whole entry, chain 2 of 2, further chain): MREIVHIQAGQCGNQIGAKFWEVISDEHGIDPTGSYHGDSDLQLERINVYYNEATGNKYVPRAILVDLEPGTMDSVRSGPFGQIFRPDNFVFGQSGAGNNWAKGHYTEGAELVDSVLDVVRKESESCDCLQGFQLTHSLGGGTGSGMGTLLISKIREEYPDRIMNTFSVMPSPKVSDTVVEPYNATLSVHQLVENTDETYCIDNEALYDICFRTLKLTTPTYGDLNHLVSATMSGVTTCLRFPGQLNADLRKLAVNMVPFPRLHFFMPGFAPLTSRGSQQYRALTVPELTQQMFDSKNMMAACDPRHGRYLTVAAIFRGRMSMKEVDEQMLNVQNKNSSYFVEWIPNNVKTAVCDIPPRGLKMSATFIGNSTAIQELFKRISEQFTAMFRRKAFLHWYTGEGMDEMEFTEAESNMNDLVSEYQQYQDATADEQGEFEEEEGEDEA

B1: GMΔNT phosphorylated by Aurora B/INCENP, Q91636 187-730 (domain or fragment)
chain: GRNNQGRRKSNIVKEMEKMKNKREEQRAQNYERRMKRAQDYDTSVPNWEFGKMIKEFRATMDCHRISMADPAEEHRICVCVRKRPLNKQELSKKEIDIISVPSKNIVLVHEPKLKVDLTKYLENQAFRFDFSFDETATNEVVYRFTARPLVQSIFEGGKATCFAYGQTGSGKTHTMGGDFSGKSQNVSKGVYAFASRDVFLLLDQPRYKHLDLDVFVTFFEIYNGKVFDLLNKKTKLRVLEDAKQEVQVVGLLEKQVISADDVFKMIEIGSACRTSGQTFANTSSSRSHACLQIILRRGSKLHGKFSLVDLAGNERGVDTASADRITRMEGAEINRSLLALKECIRALGQNKSHTPFRESKLTQILRDSFIGENSRTCMIAMLSPGFNSCEYTLNTLRYADRVKELSPQNAETNDDNLQMEDSGGSHASIEGLQLQDDFLLKDEELSTHNSFQDALNRVGELEDKAVDELRELVQKEPEWTNLLQMTEQPDYDLENFVMQAEYLIQERSKVLIALGDSINSLRLALQVEEQASKQISKKKRSNK
modifications: here or on the partner: phosphorylated by Aurora B/INCENP (S196 is retained in this region)
B1 gave a fold increase in Kd against non-phosphorylated GMΔNT of 16 fold.
